What was measured:
[1] = tested on: mice bearing U-87MG xenografts; experiment: in vivo; details: mouse
Description: (§1) All animal experiments complied with the current laws of the Federal Republic of Germany and were conducted according to German Animal welfare guidelines. Normal female athymic Balb/c nude mice (17–20 g, 4–6 weeks old) were obtained from Janvier SAS (St. Berthevin Cedex, France). Mice were provided with food and water ad libitum. U-87MG tumors were induced on the right shoulder by sub-cutaneous injection of 5 × 10^6 cells in a 100 μl cell suspension of a 1:1 v/v mixture of media with reconstituted basement membrane (GFR BD Matrigel™, Corning BV, Amsterdam, Holland). Static and dynamic PET imaging experiments were conducted on a microPET Focus 120 scanner (Concorde Microsystems). For dynamic PET imaging studies, approximately 5 min prior to recording PET images, mice (n = 3) were anesthetized by inhalation of 2–3 % isoflurane/oxygen gas mixture, fitted with an intravenous catheter and placed on the scanner bed in the prone position. Anesthesia was maintained using 1–2 % isoflurane. For all experiments, animals were injected with 100 μl sterile filtered phosphate-buffered saline formulations pH 7.4 of [^64Cu]Cu-8 and [^64Cu]Cu-9 (~ 500 pmol, 7–11 MBq). Dynamic scans were recorded from 0 to 1 h post radiotracer administration. List-mode data were acquired using a γ-ray energy window of 350–650 keV and a coincidence timing window of 6 ns. For the 24 h p.i. time point, mice were injected 24 h prior to image acquisition and placed in the cages. Five to ten minutes prior to static PET imaging, mice were anesthetized with isoflurane (2–4 % in air) and positioned in the scanner. Animals of the PET imaging studies were included in the ex vivo biodistribution studies (vide infra). Reconstruction was performed using unweighted OSEM2D. Image analysis was performed using AMIDE. Image counts per second per voxel (cps/voxel) were calibrated to activity concentrations (Bq ml^−1) by measuring a 3.5-cm cylinder phantom filled with a known concentration of radioactivity.

[2] = in vivo; parameters: species or system mice; details: female, athymic Balb/c nude, mouse, iv, total radioactivity, Tumor uptake (PET)
Description: as §1

[3] = tested on: U-87MG cells; experiment: Cell internalization assay; type: cell-based, human; details: for specific surface-bound fraction: all time points
Description: For cell internalization, U-87MG cells were seeded at a density of 10^6 cells per well in 6-well plates and incubated overnight with medium (Dulbecco modified Eagle medium with GlutaMAX containing 10 % fetal bovine serum, 1 % 10,000 U ml^−1 penicillin and 10,000 U ml^−1 streptomycin, 1 % sodium-pyruvate 100 mM). After 24 h, the medium was removed and the cells were washed with PBS. Approximately 2.5 pmol of [^64Cu]Cu-8 and [^64Cu]Cu-9 was added to the cells (in triplicates) to give a final volume of 1.5 ml PBS in each well followed by incubation for 1 h at 37 °C, 5 % CO2. […] At each time point, the internalization was stopped by removing the medium and washing the cells twice with ice-cold PBS. To remove the receptor-bound radioligand, an acid wash was carried out twice with a 0.1 M glycine buffer pH 2.8 for 5 min on ice. Finally, cells were solubilized with 1 N NaOH. Radioactivity of cell fractions (supernatant, receptor-bound, and internalized) was measured by a Perkin Elmer gamma counter. Experiments were performed twice in triplicate.

[4] = tested on: mice bearing U-87MG xenografts; experiment: in vivo; details: for reduction of uptake in U-87MG xenografts by co-injection of c(RGDfK) 7: 1 h p.i.
Description: (§2) All animal experiments complied with the current laws of the Federal Republic of Germany and were conducted according to German Animal welfare guidelines. Normal female athymic Balb/c nude mice (17–20 g, 4–6 weeks old) were obtained from Janvier SAS (St. Berthevin Cedex, France). Mice were provided with food and water ad libitum. U-87MG tumors were induced on the right shoulder by sub-cutaneous injection of 5 × 10^6 cells in a 100 μl cell suspension of a 1:1 v/v mixture of media with reconstituted basement membrane (GFR BD Matrigel™, Corning BV, Amsterdam, Holland). For each compound, a total of three animals were injected with [^64Cu]Cu-8 and [^64Cu]Cu-9 (~ 500 pmol, 7–11 MBq) in 100 μl sterile filtered phosphate-buffered saline via a tail vein. At 1 h p.i., animals were sacrificed by isoflurane anesthesia. Organs of interest were dissected, weighed, and assayed for radioactivity in a gamma counter. The percent injected activity per gram (%IA g^−1) for each tissue was calculated by comparison of the tissue counts to a standard sample prepared from the injectate.

[5] = in vivo; parameters: species or system mice; details: female, athymic Balb/c nude, mouse, in vivo, iv, total radioactivity
Description: as §2

[6] = female, athymic Balb/c nude, mouse, in vivo, iv, 1 h

Compound	liver uptake, normal vs blocking groups (PET) [1]	time to maximum tumor accumulation (TAC) [1]	tissue uptake per volume at 1 h ([2]; 5 mg/kg)	tissue uptake per volume at 1 h [2]	receptor-mediated (αvß3-specific) internalization ([3]; 4 h)	receptor-mediated (αvß3-specific) internalization ([3]; after 30 min)	specific surface-bound fraction [3]	reduction of uptake in U-87MG xenografts by co-injection of c(RGDfK) 7 [4]	Tumor-to-blood ratio [4, 6]	Tumor-to-kidney ratio ([4]; mouse, in vivo)	Tumor-to-liver ratio ([4]; mouse, in vivo)	tissue to tissue ratio at 1 h ([5]; Tumor-to-blood ratio)	tissue to tissue ratio at 1 h ([5]; Tumor-to-kidney ratio)	tissue to tissue ratio at 1 h ([5]; Tumor-to-liver ratio)	tissue to tissue ratio at 1 h ([5]; Tumor-to-muscle ratio)	fold higher tumor uptake compared with the monomeric counterpart (PET images) [1]	Tumor-to-liver ratio [4, 6]	fold higher tumor uptake compared with the monomer [^64Cu]Cu-8 ([4]; mouse, in vivo)
Cn1ccnc1CN1CCN(CC(=O)NCCCC[C@@H]2NC(=O)[C@@H](Cc3ccccc3)NC(=O)[C@H](CC(=O)O)NC(=O)CNC(=O)[C@H](CCCNC(=N)N)NC2=O)CCN(Cc2nccn2C)CC1 [[^64Cu]Cu-8, metal not drawn]	No significant differences	5 to 10 min	0.91 ± 0.39 %ID/mL	2.61 ± 0.65 %ID/mL	1.4 ± 0.1%	0.2 ± 0.1%	≤ 0.1%	89%	14.37	0.86	0.84	15 ± 3.05	0.86 ± 0.04	0.83 ± 0.1	10.5 ± 4.79			
N=C(N)NCCC[C@@H]1NC(=O)[C@H](CCCCNC(=O)CCCCn2ccnc2CN2CCN(Cc3nccn3CCCCC(=O)NCCCC[C@@H]3NC(=O)[C@@H](Cc4ccccc4)NC(=O)[C@H](CC(=O)O)NC(=O)CNC(=O)[C@H](CCCNC(=N)N)NC3=O)CCN(Cc3nccn3CCCCC(=O)NCCCC[C@@H]3NC(=O)[C@@H](Cc4ccccc4)NC(=O)[C@H](CC(=O)O)NC(=O)CNC(=O)[C@H](CCCNC(=N)N)NC3=O)CC2)NC(=O)[C@@H](Cc2ccccc2)NC(=O)[C@H](CC(=O)O)NC(=O)CNC1=O [[^64Cu]Cu-9, metal not drawn]	No significant differences	5 to 10 min	2.18 ± 0.66 %ID/mL	4.42 ± 1.1 %ID/mL	8.7 ± 0.6%	0.7 ± 0.2%	≤ 0.1%	60%		0.73			0.73 ± 0.11	1.03 ± 0.26	14.1 ± 3.83	~ 2 fold	0.99	~ 2.5 fold

— PMC7782405 (Molecular Imaging and Biology, 2020)
